The Kd is the free concentration of one partner at which half of the binding sites on the other are occupied at equilibrium, for simple one-to-one binding. For orientation: koff means the rate constant with which the complex falls apart. Low readings indicate slow dissociation, high ones fast dissociation. A word on the kon: it is a measure of how fast the partners come together.

Where a chain is given by its changes, count along the chain named.

The record followed here is patent US20240043537A1 (MacroGenics, published 2024).

To fix the notation:
B1: DART-A-M23 (bispecific antibody)
chain 1: DFVMTQSPDSLAVSLGERVTMSCKSSQSLLNSGNQKNYLTWYQQKPGQPPKLLIYWASTRESGVPDRFSGSGSGTDFTLTISSLQAEDVAVYYCQNDYSYPYTFGQGTKLEIKGGGSGGGGEVQLVESGGGLVQPGGSLRLSCAASGFTFSTYAMNWVRQAPGKGLEWVGRIRSKYNNYATYYADSVKDRFTISRDDSKNSLYLQMNSLKTEDTAVYYCVRHGNFGNSYVSWFAYWGQGTLVTVSSGGCGGGKVAALKEKVAALKEKVAALKEKVAALKE
chain 2: QAVVTQEPSLTVSPGGTVTLTCRSSTGAVTTSNYANWVQQKPGQAPRGLIGGTNKRAPWTPARFSGSLLGGKAALTITGAQAEDEADYYCAEWYSNLWVFGGGTKLTVLGGGGSGGGGEVQLVQSGAELKKPGASVKVSCKASGYTFTDYYMKWVRQAPGQGLEWIGDIIPSNGATFYNQKFKGRVTITVDKSTSTAYMELSSLRSEDTAVYYCARSHLLRASWFAYWGQGTLVTVSSGGCGGGEVAALEKEVAALEKEVAALEKEVAALEK
notes: also called CD123 x CD3 DART-A-type diabody with CD3 mAb 1 M23
B2: DART-A-M26 (bispecific antibody)
chain 1: B1 chain 1
chain 2: B1 chain 2 with K55G, E92L
notes: also called CD123 x CD3 DART-A-type diabody with CD3 mAb 1 M26
B3: DART-A-M25 (bispecific antibody)
chain 1: B1 chain 1
chain 2: B1 chain 2 with G52D, E92L
notes: also called CD123 x CD3 DART-A-type diabody with CD3 mAb 1 M25
B4: DART-A-M24 (bispecific antibody)
chain 1: B1 chain 1
chain 2: B1 chain 2 with E92Q
notes: also called CD123 x CD3 DART-A-type diabody with CD3 mAb 1 M24
B5: DART-A-WT (bispecific antibody)
chain 1: B1 chain 1
chain 2: B1 chain 2 with E92L
notes: Two-chain diabody without Fc; Kabat position 65 of the CD3 VH is D; also called CD3 Mab-1; Wild-Type

T1 sequence (P07766 23-126): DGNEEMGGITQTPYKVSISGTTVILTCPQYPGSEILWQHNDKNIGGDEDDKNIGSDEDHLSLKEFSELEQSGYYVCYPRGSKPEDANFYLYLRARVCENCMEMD

One assay concerns the target T1, CD3 (as used for the BIACORE kinetics of Table 11) (UniProt P07766 23-126).
T1 construct: CD3 mAb 1 is described as an anti-human CD3 antibody
The experiment in a line: SPR (BIACORE). As to the method:
Variants of the CD123×CD3 DART-A-type diabody (designated DART-A-WT; amino acid sequences provided above) were generated comprising the VH and VL Domains of the identified scFvs. Thus, a panel of DART-A-type diabodies, designated DART-A-M1-DART-A-M26, comprising vCD3-Binding Domains (such vCD3-Binding Domains being respectively designated “CD3 mAb 1 M1-CD3 mAb 1 M26”) were generated. The CD3-binding kinetics of DART-A-M1-DART-A-M26 were measured by BIACORE® and compared to DART-A-WT. Table 11 summarizes the CD3-binding kinetics of DART-A-WT and the DART-A-type diabodies comprising the vCD3-Binding Domains of CD3 mAb 1 M1-CD3 mAb 1 M26, ranked by kₐ (R denotes kₐ, kd, or kD ratio of variant DART-A-type diabody (comprising a vCD3-Binding Domain) to DART-A-WT (comprising the rCD3-Binding Domain of CD3 mAb 1)).
As to B1, the Kd is 26.9 nM, the “R (KD ratio to DART-A-WT)” value worked out at 3.3, the “R (ka ratio to DART-A-WT)” value was found to be 0.9 and the “R (kd ratio to DART-A-WT)” value is 3. Further, the koff is 0.0124 s⁻¹ and the kon was 459000 M⁻¹ s⁻¹.

Regarding B2, binding was put at a Kd of 54.4 nM, the “R (KD ratio to DART-A-WT)” value amounted to 6.7, the “R (ka ratio to DART-A-WT)” value is 0.6 and the “R (kd ratio to DART-A-WT)” value amounted to 4.3. In addition, the koff was 0.0174 s⁻¹ and the kon amounted to 319000 M⁻¹ s⁻¹.

Regarding B3, binding was put at a Kd of 125 nM, the “R (KD ratio to DART-A-WT)” value turned out to be 15, the “R (ka ratio to DART-A-WT)” value turned out to be 0.3 and the “R (kd ratio to DART-A-WT)” value worked out at 4.7. The same molecule came in with a koff of 0.0192 s⁻¹ and a kon of 154000 M⁻¹ s⁻¹.

Take B4: the dissociation constant Kd was 14.5 nM, the “R (KD ratio to DART-A-WT)” value was found to be 1.8, the “R (ka ratio to DART-A-WT)” value is 1.2 and the “R (kd ratio to DART-A-WT)” value was 2.1. Further, the koff came out at 0.00861 s⁻¹ and the kon turned out to be 594000 M⁻¹ s⁻¹.

As for B5, the affinity, expressed as Kd, was 8.17 nM; the “R (KD ratio to DART-A-WT)” value is 1; the “R (ka ratio to DART-A-WT)” value came to 1; the “R (kd ratio to DART-A-WT)” value is 1. Besides, the koff was determined as 0.00409 s⁻¹ and the kon came out at 500000 M⁻¹ s⁻¹.

The target of the next assay is CD3 on T-cells (UniProt P07766 23-207). The experiment in a line: cell-based or functional assay.
Sequence of CD3 on T-cells (P07766 23-207): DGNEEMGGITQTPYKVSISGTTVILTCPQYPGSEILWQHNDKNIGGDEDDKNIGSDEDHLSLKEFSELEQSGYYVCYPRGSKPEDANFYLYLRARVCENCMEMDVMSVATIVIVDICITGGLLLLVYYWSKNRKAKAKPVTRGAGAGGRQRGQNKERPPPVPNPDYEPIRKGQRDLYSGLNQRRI
As for B1, the “EC50 of cytolysis at 18 hours (CTL assay, Pan-T-cells and MOLM-13, E:T = 5:1)” value (from here on “EC50 of cytolysis at 18 hours”) amounted to 0.421 ng/mL; the “EC50 of cytolysis at 42 hours (CTL assay, Pan-T-cells and MOLM-13, E:T = 5:1)” value (“EC50 of cytolysis at 42 hours” below) came to 0.061 ng/mL; the “R: ratio of 18 hour EC50 to DART-A-WT (CTL assay, Pan-T-cells and MOLM-13, E:T = 5:1)” value (shortened to “R: ratio of 18 hour EC50 to DART-A-WT”) was determined as 5.3 ratio; the “R: ratio of 42 hour EC50 to DART-A-WT (CTL assay, Pan-T-cells and MOLM-13, E:T = 5:1)” value (“R: ratio of 42 hour EC50 to DART-A-WT” for short) is 21.6 ratio. Moreover, the “max % CytoTox at 18 hours (CTL assay, Pan-T-cells and MOLM-13, E:T = 5:1)” value (“max % CytoTox at 18 hours” below) is 49.3%; the “max % CytoTox at 42 hours (CTL assay, Pan-T-cells and MOLM-13, E:T = 5:1)” value (shortened to “max % CytoTox at 42 hours”) came out at 31.4%.

For B2, the “EC50 of cytolysis at 18 hours” value is 0.444 ng/mL; the “EC50 of cytolysis at 42 hours” value was found to be 0.078 ng/mL; the “R: ratio of 18 hour EC50 to DART-A-WT” value was found to be 5.6 ratio; the “R: ratio of 42 hour EC50 to DART-A-WT” value was 27.9 ratio. In addition, the “max % CytoTox at 18 hours” value was found to be 44.2%; the “max % CytoTox at 42 hours” value came out at 28.2%.

For B3, the “EC50 of cytolysis at 18 hours” value stood at 0.585 ng/mL; the “EC50 of cytolysis at 42 hours” value worked out at 0.1 ng/mL; the “R: ratio of 18 hour EC50 to DART-A-WT” value came to 7.4 ratio; the “R: ratio of 42 hour EC50 to DART-A-WT” value was determined as 35.7 ratio. In addition, the “max % CytoTox at 18 hours” value worked out at 46.6%; the “max % CytoTox at 42 hours” value was 30.4%.

Turning to B4, the “EC50 of cytolysis at 18 hours” value came out at 0.34 ng/mL; the “EC50 of cytolysis at 42 hours” value was determined as 0.031 ng/mL; the “R: ratio of 18 hour EC50 to DART-A-WT” value came to 4.3 ratio; the “R: ratio of 42 hour EC50 to DART-A-WT” value was 11.1 ratio. Moreover, the “max % CytoTox at 18 hours” value worked out at 49.4%; the “max % CytoTox at 42 hours” value turned out to be 31.1%.

As to B5, the “EC50 of cytolysis at 18 hours” value was 0.079 ng/mL; the “EC50 of cytolysis at 42 hours” value was 0.003 ng/mL; the “R: ratio of 18 hour EC50 to DART-A-WT” value is 1 ratio; the “R: ratio of 42 hour EC50 to DART-A-WT” value worked out at 1 ratio. In addition, the “max % CytoTox at 18 hours” value stood at 39%; the “max % CytoTox at 42 hours” value worked out at 29.1%.
